Assay results as given in patent publication US20110027281A1 (Ablynx, published 2011).

Columns and labels:
mouse TNF-alpha = target: T1, mouse TNF-alpha (mouse, UniProt P06804 80-235); experiment: cell-based or functional assay
T1 sequence (looked up): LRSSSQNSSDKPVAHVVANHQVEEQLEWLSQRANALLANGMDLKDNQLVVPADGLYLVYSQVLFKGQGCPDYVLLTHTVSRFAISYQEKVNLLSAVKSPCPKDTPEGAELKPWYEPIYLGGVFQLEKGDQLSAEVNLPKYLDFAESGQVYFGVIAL

[1] = target: T2, human Tumor Necrosis Factor alpha (human, UniProt P01375 77-233); experiment: cell-based or functional assay
T2 sequence (P01375 77-233 limits assumed): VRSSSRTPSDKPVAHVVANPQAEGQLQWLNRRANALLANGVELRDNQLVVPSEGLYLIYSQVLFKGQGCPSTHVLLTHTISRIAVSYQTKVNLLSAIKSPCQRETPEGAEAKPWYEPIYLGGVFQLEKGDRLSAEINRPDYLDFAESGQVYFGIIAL

[2] = target: T2, human Tumor Necrosis Factor alpha; experiment: in vitro receptor binding assay: biotinylated human TNF-alpha pre-incubated with VHH, binding to coated Enbrel

B1: VHH#m9E (VHH)
VHH: EVQLVESGGGLVQAGGSLRLSCAASGGTLSSYITGWFRQAPGKEREFVGAVSWSSSTIVYADSVEGRFTISRDNHQNTVYLQMDSLKPEDTAVYYCAARPYQKYNWASASYNVWGQGTQVTVSS
In the case of B1, the “IC50, MTT cytotoxicity assay with L929 cells (mouse TNF-alpha 65 pg/ml)” value (from here on “IC50, MTT cytotoxicity assay”) (mouse TNF-alpha) is reported as 25 nM.

B2: TETRA 3E (VHH)
chain: QVQLQESGGGLVQPGGSLRLSCAASGRTFSDHSGYTYTIGWFRQAPGKEREFVARIYWSSGNTYYADSVKGRFAISRDIAKNTVDLTMNNLEPEDTAVYYCAARDGIPTSRSVESYNYWGQGTQVTVSSEPKTPKPQPAAAQVQLQESGGGLVQPGGSLRLSCAASGRTFSDHSGYTYTIGWFRQAPGKEREFVARIYWSSGNTYYADSVKGRFAISRDIAKNTVDLTMNNLEPEDTAVYYCAARDGIPTSRSVESYNYWGQGTQVTVSSEPKTPKPQPAAAQVQLQESGGGLVQPGGSLRLSCAASGRTFSDHSGYTYTIGWFRQAPGKEREFVARIYWSSGNTYYADSVKGRFAISRDIAKNTVDLTMNNLEPEDTAVYYCAARDGIPTSRSVESYNYWGQGTQVTVSSEPKTPKPQPAAAQVQLQESGGGLVQPGGSLRLSCAASGRTFSDHSGYTYTIGWFRQAPGKEREFVARIYWSSGNTYYADSVKGRFAISRDIAKNTVDLTMNNLEPEDTAVYYCAARDGIPTSRSVESYNYWGQGTQVTVSS
With B2 the “IC50, cell based assay using KYM cells (TNF-alpha 1.29 ng/ml)” value (shortened to “IC50, cell based assay using KYM cells”) [1] was 6000 nM.

B3: VHH#m4B (VHH)
VHH: QVQLQDSGGGLVQAGGSLRLSCGVSGLSFSGYTMGWFRQAPGKEREFAAAIGWNSGTTEYRNSVKGRFTISRDNAKNTVYLQMNSLKPEDTAVYYCAASPKYMTAYERSYDFWGQGTQVTVSS
With B3 the “relative potency, MTT cytotoxicity assay with the murine cell line L929” value (mouse TNF-alpha) was 10 fold.

B4: VHH#12B (VHH)
VHH: QVQLQESGGGLVQPGGSLRLSCAASGFEFENHWMYWVRQAPGKGLEWVSTVNTNGLITRYADSVKGRFTISRDNAKYTLYLQMNSLKSEDTAVYYCTKVLPPYSDDSRTNADWGQGTQVTVSS
Binder B4 has an IC50 [2] of 66 nM.

B5: VHH#12B Q1E + Q5L + A74S + Y76N + K83R + P84A (VHH)
VHH: EVQLLESGGGLVQPGGSLRLSCAASGFEFENHWMYWVRQAPGKGLEWVSTVNTNGLITRYADSVKGRFTISRDNSKNTLYLQMNSLRAEDTAVYYCTKVLPPYSDDSRTNADWGQGTQVTVSS
notes: Made by site-directed mutagenesis and purified on TALON; The tags are not described for the mutant; also called mutant Q1E+Q5L+A74S+Y76N+K83R+P84A; mutant 1E+Q5LA74S+Y76N+K83R+P84A
With B5 the IC50 [2] was 200 nM and the “fold increase of IC50 against wild type VHH#12B” value [2] was 3 fold.

B6: BIV 3E (VHH)
chain: QVQLQDSGGGLVQAGGSLRLSCAASGGTFSSIIMAWFRQAPGKEREFVGAVSWSGGTTVYADSVLGRFEISRDSARKSVYLQMNSLKPEDTAVYYCAARPYQKYNWASASYNVWGQGTQVTVSSEPKTPKPQPAAAQVQLQDSGGGLVQAGGSLRLSCAASGGTFSSIIMAWFRQAPGKEREFVGAVSWSGGTTVYADSVLGRFEISRDSARKSVYLQMNSLKPEDTAVYYCAARPYQKYNWASASYNVWGQGTQVTVSS
For B6, the “IC50, cell based assay using KYM cells” value [1] was 0.03 nM and the “fold lower IC50 than the monomer VHH#3E, cell based assay using KYM cells” value [1] was 400 fold.

B7: BIV#m3F (VHH)
chain: QVQLQDSGGGLVQAGGSLRLSCAASGGTFSSIIMAWFRQAPGKEREFVGAVSWSGGTTVYADSVLGRFEISRDSARKSVYLQMNSLKPEDTAVYYCAARPYQKYNWASASYNVWGQGTQVTVSSEPKTPKPQPAAAQVQLQDSGGGLVQAGGSLRLSCAASGGTFSSIIMAWFRQAPGKEREFVGAVSWSGGTTVYADSVLGRFEISRDSARKSVYLQMNSLKPEDTAVYYCAARPYQKYNWASASYNVWGQGTQVTVSS
For B7, the “IC50, MTT cytotoxicity assay” value (mouse TNF-alpha) was 2000 nM and the “fold change of IC50 against monovalent 3F, MTT cytotoxicity assay with L929 cells” value (mouse TNF-alpha) was 1000 fold.

B8: VHH#m3F (VHH)
VHH: QVQLQDSGGGLVQAGGSLRLSCAASGGTFSSIIMAWFRQAPGKEREFVGAVSWSGGTTVYADSVLGRFEISRDSARKSVYLQMNSLKPEDTAVYYCAARPYQKYNWASASYNVWGQGTQVTVSS
With B8 the “IC50, MTT cytotoxicity assay” value (mouse TNF-alpha) was 2 nM and the “relative potency, MTT cytotoxicity assay with the murine cell line L929” value (mouse TNF-alpha) was 10 fold.

B9: TRI 3E (VHH)
chain: QVQLQESGGGLVQPGGSLRLSCAASGRTFSDHSGYTYTIGWFRQAPGKEREFVARIYWSSGNTYYADSVKGRFAISRDIAKNTVDLTMNNLEPEDTAVYYCAARDGIPTSRSVESYNYWGQGTQVTVSSEPKTPKPQPAAAQVQLQESGGGLVQPGGSLRLSCAASGRTFSDHSGYTYTIGWFRQAPGKEREFVARIYWSSGNTYYADSVKGRFAISRDIAKNTVDLTMNNLEPEDTAVYYCAARDGIPTSRSVESYNYWGQGTQVTVSSEPKTPKPQPAAAQVQLQESGGGLVQPGGSLRLSCAASGRTFSDHSGYTYTIGWFRQAPGKEREFVARIYWSSGNTYYADSVKGRFAISRDIAKNTVDLTMNNLEPEDTAVYYCAARDGIPTSRSVESYNYWGQGTQVTVSS
With B9 the “IC50, cell based assay using KYM cells” value [1] was 20000 nM.
